Reference: patent US20220281969A1 (ANTLERA THERAPEUTICS, published 2022)

Biological target: T1, recombinant mouse LRP6His chimera (mouse, UniProt O88572 20-1370)
T1 construct: extracellular domain; not shown: His tag
T1 sequence (looked up): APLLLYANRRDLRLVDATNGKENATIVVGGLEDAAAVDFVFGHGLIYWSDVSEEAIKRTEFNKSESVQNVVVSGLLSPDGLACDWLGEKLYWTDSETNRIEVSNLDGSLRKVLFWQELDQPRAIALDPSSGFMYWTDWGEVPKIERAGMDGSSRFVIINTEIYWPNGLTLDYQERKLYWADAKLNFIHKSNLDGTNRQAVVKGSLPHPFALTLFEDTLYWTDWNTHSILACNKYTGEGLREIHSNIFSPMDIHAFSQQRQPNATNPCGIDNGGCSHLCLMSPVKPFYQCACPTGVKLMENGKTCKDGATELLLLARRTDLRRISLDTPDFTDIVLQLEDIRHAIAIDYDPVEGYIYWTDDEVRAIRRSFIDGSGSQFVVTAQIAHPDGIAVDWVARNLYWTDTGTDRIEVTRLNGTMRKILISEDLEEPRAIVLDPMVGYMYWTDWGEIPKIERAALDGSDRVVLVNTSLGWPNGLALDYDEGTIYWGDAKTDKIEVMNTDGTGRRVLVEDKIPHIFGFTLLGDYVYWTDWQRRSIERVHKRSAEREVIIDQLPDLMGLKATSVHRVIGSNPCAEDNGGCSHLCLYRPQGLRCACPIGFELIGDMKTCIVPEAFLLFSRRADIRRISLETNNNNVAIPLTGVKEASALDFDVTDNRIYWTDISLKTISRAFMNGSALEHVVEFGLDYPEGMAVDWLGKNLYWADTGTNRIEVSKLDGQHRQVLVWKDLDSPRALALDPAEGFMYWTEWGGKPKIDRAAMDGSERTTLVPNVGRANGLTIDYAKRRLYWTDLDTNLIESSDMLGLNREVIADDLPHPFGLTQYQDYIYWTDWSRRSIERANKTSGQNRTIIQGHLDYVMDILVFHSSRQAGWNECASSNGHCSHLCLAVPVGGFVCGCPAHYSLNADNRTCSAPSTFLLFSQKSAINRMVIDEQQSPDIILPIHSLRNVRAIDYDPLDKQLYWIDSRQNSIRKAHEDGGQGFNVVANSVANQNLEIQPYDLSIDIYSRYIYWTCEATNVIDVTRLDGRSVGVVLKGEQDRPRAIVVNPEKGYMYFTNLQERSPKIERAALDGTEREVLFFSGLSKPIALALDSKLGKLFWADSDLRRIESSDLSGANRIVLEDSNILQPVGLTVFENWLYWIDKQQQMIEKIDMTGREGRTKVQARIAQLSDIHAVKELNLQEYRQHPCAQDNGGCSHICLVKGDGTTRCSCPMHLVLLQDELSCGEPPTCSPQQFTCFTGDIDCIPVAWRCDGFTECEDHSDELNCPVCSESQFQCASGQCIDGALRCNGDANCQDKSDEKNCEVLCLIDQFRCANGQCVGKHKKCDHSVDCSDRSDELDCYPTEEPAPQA
Assay: single-point ELISA, IgG1 on coated antigen
Protocol: FIGS. 1a and 1b show LRP six antibodies. (A) The amino acid sequences of the complementarity determining regions (CDR) of the heavy (H) and the light (L) chains are presented. The antibodies were grouped into unique epitopes as determined by competitive ELISAs. (B) Single-point ELISAs were performed on 96-well Maxisorb immune plates coated with the […] of mouse LRP5, mouse LRP6 and human LRP6 chimeras. The plates were incubated with the purified Fab or IgG1 at the concentrations indicated followed by incubation with horseradish peroxidase (HRP)-conjugated anti-kappa antibody. The wells were washed eight times followed by incubation with 3,3′,5,5′-tetramethylbenzidine/H₂O₂ peroxidase (TMB) substrate for 5-10 min. The reaction was stopped by adding one M H₃PO₄ and the absorbance was measured spectrometrically at 450 nm in a microtiter plate reader.
The full length IgG1s were purified and a single-point ELISA was done to determine the specificity of the antibodies. […] A multipoint competitive ELISA was used to determine the relative affinities of the antibodies to the recombinant antigen.

B1: LRP6-E3 IgG1 antibody (antibody, V domains shown)
VH: EVQLVESGGGLVQPGGSLRLSCAASGFNLYYYSMHWVRQAPGKGLEWVASIYSSYGYTYYADSVKGRFTISADTSKNTAYLQMNSLRAEDTAVYYCARYAGYYYYPWAYYGWPFSGLDYWGQGTLVTVSS
VL: DIQMTQSPSSLSASVGDRVTITCRASQSVSSAVAWYQQKPGKAPKLLIYSASSLYSGVPSRFSGSRSGTDFTLTISSLQPEDFATYYCQQAGSAPYHLITFGQGTKVEIKR
notes: Tested as purified full length IgG1
- binding result: no binding
